Measured values published in the supplement of paper PMC7125110.
± gives the standard error. This sample holds only a part of the variants without activity.

B1: glmS ribozyme (parent)
chain: AUAAAAGCGCCAGAACUACAGAAAUGUAGUUGACGAGGAGGAGGUUUAUCGAAUUUUCGGCGGAUGCCUCCAAA

Columns and labels:
Details in all cases: with glucosamine-6-phosphate
glucosamine-6-phosphate [1] = variants of: B1; experiment: self-cleavage kobs at 640 uM GlcN6P; higher = faster cleavage; RNA array
Summary of the method: (§1)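 Tracking of barcoded ribozyme variants used a hybridised Cy3 probe at 37 °C, after in situ transcription by E. coli RNA polymerase on sequenced MiSeq chips. The flowed solution held 40 μM to 10 mM glucosamine-6-phosphate in HEPES/KCl/Mg(OAc)2 buffer, and imaging ran over ~14 h. kobs was taken from exponential decay fits of normalised per-tile medians, and kcat and KM from weighted Michaelis–Menten fits.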

glucosamine-6-phosphate [2] = variants of: B1; experiment: self-cleavage kobs at 2500 uM GlcN6P; higher = faster cleavage; RNA array
Summary of the method: as §1

glucosamine-6-phosphate [3] = variants of: B1; experiment: self-cleavage kobs at 10000 uM GlcN6P; higher = faster cleavage; RNA array
Summary of the method: as §1

Variant | self-cleavage kobs at 640 uM GlcN6P (glucosamine-6-phosphate [1]) [s⁻¹] | self-cleavage kobs at 2500 uM GlcN6P (glucosamine-6-phosphate [2]) [s⁻¹] | self-cleavage kobs at 10000 uM GlcN6P (glucosamine-6-phosphate [3]) [s⁻¹]
AUAAAAGCGCCAGAACUACAGAAAUGUAGUUGACGAUGUUGAGGUUUUUGGAAUUUUCGGCGGAUGACUCCAAA [G37U A39U G40U A48U C50G C67A] | < 1e-05 | < 1e-05 | –
AUAAAAGCGCCAGAACUACAGAAAUGUAGUUGACGAGGUGGAGGUUUAUCGAAUCUUCGGCGGAGGCCUCCAAA [A39U U55C U65G] | 0.000491 ± 0.00014 | 0.00164 ± 0.00045 | –
AUAAAAGCGCCAGAACUACAGAAAUGUAGUUGACGAGCAGGAGUUUUAUCCCAUUUUCGGCGGAUGCCUCUAAA [G38C G44U G51C A52C C71U] | < 1e-05 | – | –
AUAAAAGCGCCAGAACUACAGAAAUGUAGUUGACGAGUAGGAGGUUUAUAGAAUUUUCGGCGGAUGCCUCCAAA [G38U C50A] | < 1e-05 | < 1e-05 | –
AUAAAAGCGCCAGAACUACAGAAAUGUAGUUGACGAGGGGGGGGUUUAUAGAAUUUUCGGCGGAUGCCUCCAAA [A39G A42G C50A] | < 1e-05 | < 1e-05 | –
AUAAAAGCGCCAGAACUACAGAAAUGUAGUUGACGAGAAGGAGGUUUAUCGAAUUUACGGCGGAUGCCUCCAAA [G38A U57A] | < 1e-05 | – | < 1e-05
AUAAAAGCGCCAGAACUACAGAAAUGUAGUUGACGAGUAGGAGGUUUAUCGAAUUUUCGGAGGAUGCCUCCAAA [G38U C61A] | < 1e-05 | – | –
AUAAAAGCGCCAGAACUACAGAAAUGUAGUUGACGAGAAGGAGUUUUAUCGAAUUUUCGGCUGAUGCCUCCAAA [G38A G44U G62U] | < 1e-05 | < 1e-05 | –
AUAAAAGCGCCAGAACUACAGAAAUGUAGUUGACGAGGGGGAGGUUUAUCGAAUUUUCGGGGGCUGCCUCCAAA [A39G C61G A64C] | < 1e-05 | < 1e-05 | –
AUAAAAGCGCCAGAACUACAGAAAUGUAGUUGACGAGGGGGAGGUUUAUCGAAUUUUGGCCGGAUGCCUCCAAA [A39G C58G G60C] | < 1e-05 | < 1e-05 | < 1e-05
AUAAAAGCGCCAGAACUACAGAAAUGUAGUUGACGAGAAGGAGGUUUAUCGGAUUUUCGGCGGAUGCGUCCAAA [G38A A52G C68G] | 7.2e-05 ± 2.5e-05 | – | –
AUAAAAGCGCCAGAACUACAGAAAUGUAGUUGACGAGAAGUCGGCUUAUCGAAGUUUCGGCGGAUGCGUCCAAA [G38A G41U A42C U45C U54G C68G] | < 1e-05 | – | –
AUAAAAGCGCCAGAACUACAGAAAUGUAGUUGACGAGGUGGAGUUUCAUCUAAUUUUCGGCGGAUGCCUCCAAA [A39U G44U U47C G51U] | < 1e-05 | – | –
AUAAAAGCGCCAGAACUACAGAAAUGUAGUUGACGAGGUGGAGGUUUAUCGACUUUUCGGCGGAUGCCUCAAAA [A39U A53C C71A] | 8.85e-05 ± 1.7e-05 | 0.000186 ± 5.3e-05 | –
AUAAAAGCGCCAGAACUACAGAAAUGUAGUUGACGAAGAGGAGGUGUAUCGAAUUUUCGGCGGAUGCCUCUAAA [G37A U46G C71U] | 6.59e-05 ± 3.1e-05 | – | –
AUAAAAGCGCCAGAACUACAGAAAUGUAGUUGACGAGGCGGAGGGUUAUCGAAUUUUCGGCGGAUGCCUGCAAA [A39C U45G C70G] | < 1e-05 | < 1e-05 | –
AUAAAAGCGCCAGAACUACAGAAAUGUAGUUGACGACGAUGAGGUGUAUCGAAUUUUCGGCGUAUGCCUCCAAA [G37C G40U U46G G63U] | < 1e-05 | – | < 1e-05
AUAAAAGCGCCAGAACUACAGAAAUGUAGUUGACGAGCAGGAAGUUUAUCGAAUUUUCGGCGGGUGCCUCCAAA [G38C G43A A64G] | < 1e-05 | – | –
AUAAAAGCGCCAGAACUACAGAAAUGUAGUUGACGAGGCGGAGGUUUAUCGCAUUUUCGGCGGAUGCCUCAAAA [A39C A52C C71A] | < 1e-05 | < 1e-05 | –
AUAAAAGCGCCAGAACUACAGAAAUGUAGUUGACGAGGGGGAGGUUUAUCGACUUUUCGGCGGAUGUCUCCAAA [A39G A53C C67U] | 0.00111 ± 0.00036 | 0.000701 ± 0.00027 | –
AUAAAAGCGCCAGAACUACAGAAAUGUAGUUGACGAUGAGGAGGUUUAUCGAAUUUUCGGCUGAUGCCUCCAAA [G37U G62U] | < 1e-05 | – | –
AUAAAAGCGCCAGAACUACAGAAAUGUAGUUGACGACGAGGAGGUUUCUCGAAUUUUCGGCGGAUGCCUCGAAA [G37C A48C C71G] | < 1e-05 | – | –
AUAAAAGCGCCAGAACUACAGAAAUGUAGUUGACGAGGUGGAGGGUUAUCGGAUUUUCGGCGGAUGCCUACAAA [A39U U45G A52G C70A] | < 1e-05 | – | –
AUAAAAGCGCCAGAACUACAGAAAUGUAGUUGACGAUGAGGAGGUUUAUCGAAUUUUCGGGGGAUGCCUCCAAA [G37U C61G] | < 1e-05 | – | < 1e-05

Variant | self-cleavage kobs at 640 uM GlcN6P (glucosamine-6-phosphate [1]) [s⁻¹] | self-cleavage kobs at 2500 uM GlcN6P (glucosamine-6-phosphate [2]) [s⁻¹] | self-cleavage kobs at 10000 uM GlcN6P (glucosamine-6-phosphate [3]) [s⁻¹]
AUAAAAGCGCCAGAACUACAGAAAUGUAGUUGACGAUGAGGCGGUUUAUAGAAUUUUCGGCGGUUGCCUCCAAA [G37U A42C C50A A64U] | < 1e-05 | – | –
AUAAAAGCGCCAGAACUACAGAAAUGUAGUUGACGAGCAGGAGGUUUAUCGAAUAUUCGGCGGCUGCCUCCAAA [G38C U55A A64C] | < 1e-05 | – | –
AUAAAAGCGCCAGAACUACAGAAAUGUAGUUGACGAUGAGGAGGUUUAUCGAAUUUUCGGCGGUUGCCUCCAAA [G37U A64U] | < 1e-05 | < 1e-05 | –
AUAAAAGCGCCAGAACUACAGAAAUGUAGUUGACGAGGGGGAGGUCUAUCGAAUUUUCGGCGGAUGCCUCUAAA [A39G U46C C71U] | 0.00179 ± 0.00048 | – | –
AUAAAAGCGCCAGAACUACAGAAAUGUAGUUGACGAUGAGGAGGUUUGUCGAAUUUUCGGCGGAUGCCUUCAAA [G37U A48G C70U] | < 1e-05 | – | –
AUAAAAGCGCCAGAACUACAGAAAUGUAGUUGACGAUGAGCAGGUUUAUCGAAUUUUCGUCGGAUGCCUCCAAA [G37U G41C G60U] | < 1e-05 | – | –
AUAAAAGCGCCAGAACUACAGAAAUGUAGUUGACGAGAAGGUGGUUUAUCGAAUUUUCGUCGGAUGCCUCGAAA [G38A A42U G60U C71G] | < 1e-05 | – | –
AUAAAAGCGCCAGAACUACAGAAAUGUAGUUGACGAGGGGGAGGAUUAUCGAAUUUCCGGCGGAUGCCUCCAAA [A39G U45A U57C] | 0.000107 ± 2.6e-05 | 0.000294 ± 7.7e-05 | –
AUAAAAGCGCCAGAACUACAGAAAUGUAGUUGACGAGGCGGAGGGUUAUCGAAUUGUCGGCGGAUGCCUCCAAA [A39C U45G U56G] | 7.85e-05 ± 2.3e-05 | – | –
AUAAAAGCGCCAGAACUACAGAAAUGUAGUUGACGAGGUGGAUGUUUAUUGAAUUUUCGGCGGAUGCCUCCAAA [A39U G43U C50U] | < 1e-05 | < 1e-05 | –
AUAAAAGCGCCAGAACUACAGAAAUGUAGUUGACGAGGUGUUGGUUUAUCGAAUUUUCGGCGGAUGCCUCCAAA [A39U G41U A42U] | 5.35e-05 ± 1.4e-05 | 0.000135 ± 2.2e-05 | –
AUAAAAGCGCCAGAACUACAGAAAUGUAGUUGACGAGAUGGAGGUUUAUCGAAUGUUCGGCGGAUGCCGCCAAA [G38A A39U U55G U69G] | < 1e-05 | – | –
AUAAAAGCGCCAGAACUACAGAAAUGUAGUUGACGAGUAGAAGGUGUAGCGAAUUUUCGGCGGAUGCCUCCAAA [G38U G41A U46G U49G] | < 1e-05 | – | < 1e-05
AUAAAAGCGCCAGAACUACAGAAAUGUAGUUGACGAUGCGGAGGUUUAUCGAAUUUUCGGCGGGUGCCGCCAAA [G37U A39C A64G U69G] | < 1e-05 | – | –
AUAAAAGCGCCAGAACUACAGAAAUGUAGUUGACGAGGCGGAGGUUUAUCAAAUUUUCGGCGGGUGCCUCCAAA [A39C G51A A64G] | < 1e-05 | – | –
AUAAAAGCGCCAGAACUACAGAAAUGUAGUUGACGAGGGGGAGGUUUAUCGAAUUUUCGGCGGAUGGGUCCAAA [A39G C67G C68G] | 9.65e-05 ± 2.5e-05 | 7.78e-05 ± 1.7e-05 | –
AUAAAAGCGCCAGAACUACAGAAAUGUAGUUGACGAGGGUGAGGUUUAUCGAAUUUUGGGCGGAUGCCUCCAAA [A39G G40U C58G] | < 1e-05 | – | –
AUAAAAGCGCCAGAACUACAGAAAUGUAGUUGACGAGCAGUAGCUUUAUCGAAUUUUCGGCGGAUGCCUCCAAA [G38C G41U G44C] | < 1e-05 | < 1e-05 | –
AUAAAAGCGCCAGAACUACAGAAAUGUAGUUGACGAGGUGGAGGUUUUUCGAAUCUUCUGCGGAUGCCUCCAAA [A39U A48U U55C G59U] | < 1e-05 | < 1e-05 | –
AUAAAAGCGCCAGAACUACAGAAAUGUAGUUGACGAUGAGGAGGUUUAUACAAUUUUCGGCGGAUGCCUCCAAA [G37U C50A G51C] | < 1e-05 | – | –
AUAAAAGCGCCAGAACUACAGAAAUGUAGUUGACGAGGUGGAGGUUUAUCGAAUUUUAGGCGGUUGCCUCCAAA [A39U C58A A64U] | < 1e-05 | < 1e-05 | –
AUAAAAGCGCCAGAACUACAGAAAUGUAGUUGACGACGAGGAGGUUUAUUGAGUUCUCGGCGGAUGCCUCCAAA [G37C C50U A53G U56C] | < 1e-05 | – | –
AUAAAAGCGCCAGAACUACAGAAAUGUAGUUGACGAGGGGGAGGUUGAUCGAAUUUUCCGCGGAUGCCUCCAAA [A39G U47G G59C] | < 1e-05 | – | –
AUAAAAGCGCCAGAACUACAGAAAUGUAGUUGACGACGAGGAGGUUUACCGAAUUUUCGGCGGAUGCCUCCAAA [G37C U49C] | < 1e-05 | < 1e-05 | < 1e-05
